Experimental findings from PMC8983682 (2022) are described below.

Some results are limits rather than exact numbers.

The target of this assay is N1-MI15-WT (recombinant soluble NA head of A/Michigan/45/2015 fused to hVASP) (influenza A virus A/Michigan/45/2015). Put plainly: BLI.

B1: CD6 IgG (antibody, V domains shown)
VH: QVKLQESGGGLVQPKGSLKLSCAASGFTFNTYAMNWVRQAPGKGLEWVARIRSKSNNYATFYADSVKDRFTISRDDSQSMLYLQMHNLKTDDTAMYYCVRPSIYYYASGYLDVWGAGTTVTVSS
VL: QIVLSQSPAILSASPGEKVTMTCRTSSSVSYMHWYQQKPGSSPKPWIYATSNLASGVPFRFSGSGSGTSYSLTISRVEAEDAATYYCQQWNSNPPTFGGGTKLEIK
What is called Kd is the concentration at which binding is half-saturated. Take B1: the Kd was found to be 1.3 nM.

B2: 1G01 IgG (antibody, V domains shown)
VH: EVQLVESGGRALRPGGSLRLSCAASGFKFDDYAMSWVRQVPGKGLEFVSGLNWNGDITAYTDSVKGRFTVSRDNAKNSLYLHINSPKPEDTALYYCARTSSWGDYTRGPEPKITWYFDLWGRGTLVTVSS
VL: DIQLTQSPSFLSASVGDRITITCRASQGIDGYLAWYQQRPGKAPNLLIYAASLLQSGVPSRFSGSGYGTEFTLTISSLQPEDFATYYCQHLDSYPLFTFGPGTKVDIK
Turning to B2, the Kd was < 0.001 nM.
